Broadly, the Kd is the concentration at which binding is half-saturated.

The record followed here is US20260053942A1 (Astellas, published 2026).

The test addresses T1, human TROP2 as used in the Biacore measurements (human, UniProt P09758 27-274).
T1 sequence: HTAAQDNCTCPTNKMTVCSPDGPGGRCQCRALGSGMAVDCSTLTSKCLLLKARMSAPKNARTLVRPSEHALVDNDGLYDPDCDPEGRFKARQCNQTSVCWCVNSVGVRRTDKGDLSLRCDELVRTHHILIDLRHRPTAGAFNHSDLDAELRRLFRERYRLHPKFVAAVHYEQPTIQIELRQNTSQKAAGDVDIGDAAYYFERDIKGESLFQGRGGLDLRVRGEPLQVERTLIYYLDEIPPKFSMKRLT
As to the kind of experiment: SPR (Biacore), format not stated. In general terms: SPR reads the build-up and loss of mass on a sensor chip optically.

B1: 2293-C04, affinity matured anti-Trop2 antibody from a synthetic ribosome display human antibody library (antibody, V domains shown)
VH: EVQLVESGGGLVQPGGSLRLSCAASGFNISNKWIHWVRQAPGKGLEWVGWIAPSSGDTDYADSVKGRFTISADTSKNTAYLQMNSLRAEDTAVYYCAREGYNWYWYVLDYWGQGTLVTVSS
VL: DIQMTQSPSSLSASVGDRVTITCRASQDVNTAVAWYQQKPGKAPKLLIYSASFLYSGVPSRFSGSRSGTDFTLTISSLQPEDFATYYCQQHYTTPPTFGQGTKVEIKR
modifications: SEQ ID NO 17 is listed with pAcF at K42; the filing does not say whether the antibody measured by Biacore carried it
As to B1, the Kd is 1.1 nM.
